Experimental data: IntAct's records for PubMed 25910212

B1: EF-hand domain-containing protein 1 (Homo sapiens), Q5JVL4 (parent)
chain: MVSNPVHGLPFLPGTSFKDSTKTAFHRSQTLSYRNGYAIVRRPTVGIGGDRLQFNQLSQAELDELASKAPVLTYGQPKQAPPADFIPAHVAFDKKVLKFDAYFQEDVPMSTEEQYRIRQVNIYYYLEDDSMSVIEPVVENSGILQGKLIKRQRLAKNDRGDHYHWKDLNRGINITIYGKTFRVVDCDQFTQVFLESQGIELNPPEKMALDPYTELRKQPLRKYVTPSDFDQLKQFLTFDKQVLRFYAIWDDTDSMYGECRTYIIHYYLMDDTVEIREVHERNDGRDPFPLLMNRQRVPKVLVENAKNFPQCVLEISDQEVLEWYTAKDFIVGKSLTILGRTFFIYDCDPFTRRYYKEKFGITDLPRIDVSKREPPPVKQELPPYNGFGLVEDSAQNCFALIPKAPKKDVIKMLVNDNKVLRYLAVLESPIPEDKDRRFVFSYFLATDMISIFEPPVRNSGIIGGKYLGRTKVVKPYSTVDNPVYYGPSDFFIGAVIEVFGHRFIILDTDEYVLKYMESNAAQYSPEALASIQNHVRKREAPAPEAESKQTEKDPGVQELEALIDTIQKQLKDHSCKDNIREAFQIYDKEASGYVDRDMFFKICESLNVPVDDSLVKELIRMCSHGEGKINYYNFVRAFSN
B2: Keratin, type II cytoskeletal 6A (Homo sapiens), P02538 (parent)
chain: MASTSTTIRSHSSSRRGFSANSARLPGVSRSGFSSVSVSRSRGSGGLGGACGGAGFGSRSLYGLGGSKRISIGGGSCAISGGYGSRAGGSYGFGGAGSGFGFGGGAGIGFGLGGGAGLAGGFGGPGFPVCPPGGIQEVTVNQSLLTPLNLQIDPTIQRVRAEEREQIKTLNNKFASFIDKVRFLEQQNKVLETKWTLLQEQGTKTVRQNLEPLFEQYINNLRRQLDSIVGERGRLDSELRGMQDLVEDFKNKYEDEINKRTAAENEFVTLKKDVDAAYMNKVELQAKADTLTDEINFLRALYDAELSQMQTHISDTSVVLSMDNNRNLDLDSIIAEVKAQYEEIAQRSRAEAESWYQTKYEELQVTAGRHGDDLRNTKQEIAEINRMIQRLRSEIDHVKKQCANLQAAIADAEQRGEMALKDAKNKLEGLEDALQKAKQDLARLLKEYQELMNVKLALDVEIATYRKLLEGEECRLNGEGVGQVNISVVQSTVSSGYGGASGVGSGLGLGGGSSYSYGSGLGVGGGFSSSSGRAIGGGLSSVGGGSSTIKYTTTSSSSRKSYKH
B3: Keratin, type II cytoskeletal 6A (Homo sapiens), P02538 (parent)
chain: B2 chain
partner: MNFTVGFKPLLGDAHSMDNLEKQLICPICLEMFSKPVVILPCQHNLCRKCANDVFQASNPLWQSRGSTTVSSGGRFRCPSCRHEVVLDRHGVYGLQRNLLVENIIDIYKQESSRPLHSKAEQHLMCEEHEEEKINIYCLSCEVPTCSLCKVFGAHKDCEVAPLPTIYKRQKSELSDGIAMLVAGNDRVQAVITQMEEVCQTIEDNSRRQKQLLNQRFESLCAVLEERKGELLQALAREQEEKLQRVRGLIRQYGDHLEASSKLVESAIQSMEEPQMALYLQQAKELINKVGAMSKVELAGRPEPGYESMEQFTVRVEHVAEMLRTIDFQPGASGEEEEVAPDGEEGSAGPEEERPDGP

Variants of: B1
Details: with ikzf3_human IKZF3, Q9UKT9
Chain of ikzf3_human IKZF3, Q9UKT9 (Q9UKT9 whole entry): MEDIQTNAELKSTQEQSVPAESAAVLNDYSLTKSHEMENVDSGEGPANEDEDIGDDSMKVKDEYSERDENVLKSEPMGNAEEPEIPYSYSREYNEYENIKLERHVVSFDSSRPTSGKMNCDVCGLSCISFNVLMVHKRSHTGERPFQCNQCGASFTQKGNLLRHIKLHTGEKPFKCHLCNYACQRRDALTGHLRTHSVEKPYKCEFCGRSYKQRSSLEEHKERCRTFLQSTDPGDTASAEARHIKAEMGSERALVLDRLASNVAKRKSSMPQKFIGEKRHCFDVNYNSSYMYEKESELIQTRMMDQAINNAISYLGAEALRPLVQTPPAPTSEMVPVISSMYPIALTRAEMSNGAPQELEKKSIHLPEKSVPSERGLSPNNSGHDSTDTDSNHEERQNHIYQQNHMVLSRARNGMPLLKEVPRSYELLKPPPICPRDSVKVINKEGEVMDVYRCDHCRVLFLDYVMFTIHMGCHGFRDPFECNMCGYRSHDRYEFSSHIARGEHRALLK

| effect of a mutation on the interaction | Variant |
| --- | --- |
| with no effect | T508R |

Variants of: B1
Details: with kctd4_human KCTD4, Q8WVF5
Chain of kctd4_human KCTD4, Q8WVF5 (Q8WVF5 whole entry): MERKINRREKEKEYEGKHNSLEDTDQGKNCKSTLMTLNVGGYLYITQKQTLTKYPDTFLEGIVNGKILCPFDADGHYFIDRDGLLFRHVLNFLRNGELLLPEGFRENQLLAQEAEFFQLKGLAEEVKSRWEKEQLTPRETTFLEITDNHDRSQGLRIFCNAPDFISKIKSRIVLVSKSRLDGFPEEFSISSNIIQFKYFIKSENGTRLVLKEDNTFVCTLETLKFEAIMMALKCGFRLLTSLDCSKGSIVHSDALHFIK

| effect of a mutation on the interaction | Variant |
| --- | --- |
| with no effect | T508R |

Variants of: B1
Details: with rim3a_human RIMBP3, Q9UFD9

| effect of a mutation on the interaction | Variant |
| --- | --- |
| with no effect | T508R |

Variants of: B1
Details: with trip6_human TRIP6, Q15654
Chain of trip6_human TRIP6, Q15654 (Q15654 whole entry): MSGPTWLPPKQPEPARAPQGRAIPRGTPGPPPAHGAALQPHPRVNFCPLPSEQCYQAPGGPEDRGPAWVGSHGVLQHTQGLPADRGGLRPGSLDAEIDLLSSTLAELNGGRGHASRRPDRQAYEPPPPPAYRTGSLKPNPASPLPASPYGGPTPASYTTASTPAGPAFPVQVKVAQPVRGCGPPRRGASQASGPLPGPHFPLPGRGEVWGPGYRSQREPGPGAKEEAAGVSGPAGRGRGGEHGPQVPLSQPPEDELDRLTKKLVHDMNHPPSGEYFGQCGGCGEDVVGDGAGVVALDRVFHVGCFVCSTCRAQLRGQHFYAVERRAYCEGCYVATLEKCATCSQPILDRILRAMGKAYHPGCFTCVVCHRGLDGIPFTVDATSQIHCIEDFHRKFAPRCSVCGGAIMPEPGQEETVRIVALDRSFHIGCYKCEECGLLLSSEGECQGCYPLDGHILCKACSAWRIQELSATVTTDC

| effect of a mutation on the interaction | Variant |
| --- | --- |
| with no effect | T508R |

Variants of: B1
Details: with KRT15, P19012
Target sequence in this assay (P19012 whole entry): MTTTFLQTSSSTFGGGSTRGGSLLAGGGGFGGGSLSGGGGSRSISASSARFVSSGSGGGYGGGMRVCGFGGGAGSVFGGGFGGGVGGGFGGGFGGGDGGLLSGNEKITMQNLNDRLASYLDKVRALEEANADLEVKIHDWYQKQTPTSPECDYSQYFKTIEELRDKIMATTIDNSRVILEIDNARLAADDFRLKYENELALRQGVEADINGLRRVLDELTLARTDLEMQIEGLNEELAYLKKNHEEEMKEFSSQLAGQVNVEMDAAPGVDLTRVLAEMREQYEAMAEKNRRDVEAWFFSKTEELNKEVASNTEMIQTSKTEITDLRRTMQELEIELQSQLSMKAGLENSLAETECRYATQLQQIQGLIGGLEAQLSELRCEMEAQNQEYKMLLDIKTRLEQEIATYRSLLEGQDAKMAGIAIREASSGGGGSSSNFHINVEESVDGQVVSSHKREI

| effect of a mutation on the interaction | Variant |
| --- | --- |
| with no effect | T508R |

Variants of: B1
Details: with TCF4, P15884-3

| effect of a mutation on the interaction | Variant |
| --- | --- |
| disrupting interaction strength | T508R |

Variants of: B1
Details: with goga2_human GOLGA2, Q08379
Target sequence in this assay (Q08379 whole entry): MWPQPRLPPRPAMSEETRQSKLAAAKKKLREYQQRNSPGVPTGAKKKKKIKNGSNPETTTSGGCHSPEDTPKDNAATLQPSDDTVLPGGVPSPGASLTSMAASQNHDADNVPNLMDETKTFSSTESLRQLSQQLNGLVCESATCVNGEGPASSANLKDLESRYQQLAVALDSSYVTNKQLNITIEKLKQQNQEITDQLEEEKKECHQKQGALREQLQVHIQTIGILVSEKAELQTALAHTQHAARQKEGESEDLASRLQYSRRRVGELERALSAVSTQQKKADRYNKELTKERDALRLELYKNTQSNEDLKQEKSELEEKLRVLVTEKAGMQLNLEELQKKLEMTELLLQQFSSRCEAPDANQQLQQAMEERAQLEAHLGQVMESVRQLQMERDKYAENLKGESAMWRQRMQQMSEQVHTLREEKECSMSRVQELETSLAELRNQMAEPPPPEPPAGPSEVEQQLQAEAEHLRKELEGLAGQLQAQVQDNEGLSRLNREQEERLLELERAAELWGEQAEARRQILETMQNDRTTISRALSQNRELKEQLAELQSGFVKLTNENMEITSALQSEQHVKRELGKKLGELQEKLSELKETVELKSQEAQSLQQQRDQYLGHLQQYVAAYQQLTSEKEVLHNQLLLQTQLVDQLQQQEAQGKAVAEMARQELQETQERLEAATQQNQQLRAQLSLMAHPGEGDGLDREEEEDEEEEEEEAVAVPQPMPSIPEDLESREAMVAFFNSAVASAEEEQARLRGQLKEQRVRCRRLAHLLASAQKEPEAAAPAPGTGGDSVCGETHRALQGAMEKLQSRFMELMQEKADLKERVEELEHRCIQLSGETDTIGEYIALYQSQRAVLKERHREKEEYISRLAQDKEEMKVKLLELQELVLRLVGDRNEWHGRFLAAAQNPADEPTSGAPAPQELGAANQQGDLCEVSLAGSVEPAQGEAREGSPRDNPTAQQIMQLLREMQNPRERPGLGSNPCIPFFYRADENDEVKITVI

| effect of a mutation on the interaction | Variant |
| --- | --- |
| with no effect | T508R |

Variants of: B2
Details: with KRT15, P19012
Target sequence in this assay (P19012 whole entry): as the sequence (P19012 whole entry) above

| effect of a mutation on the interaction | Variant |
| --- | --- |
| with no effect | V523F |
| with no effect | T552S |

Variants of: B2
Details: with KRT40, Q6A162
Chain of KRT40, Q6A162 (Q6A162 whole entry): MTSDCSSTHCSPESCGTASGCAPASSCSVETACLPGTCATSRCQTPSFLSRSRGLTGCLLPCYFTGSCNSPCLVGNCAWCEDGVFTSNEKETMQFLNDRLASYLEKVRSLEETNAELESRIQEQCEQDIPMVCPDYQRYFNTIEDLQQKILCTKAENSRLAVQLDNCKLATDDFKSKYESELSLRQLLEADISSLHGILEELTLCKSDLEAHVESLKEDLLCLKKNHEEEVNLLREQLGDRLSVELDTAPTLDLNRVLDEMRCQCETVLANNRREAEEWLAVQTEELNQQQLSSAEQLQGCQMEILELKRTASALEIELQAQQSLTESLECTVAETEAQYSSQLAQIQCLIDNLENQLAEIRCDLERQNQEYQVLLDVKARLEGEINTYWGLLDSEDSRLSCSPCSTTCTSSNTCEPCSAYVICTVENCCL

| effect of a mutation on the interaction | Variant |
| --- | --- |
| with no effect | V523F |
| with no effect | T552S |

Variants of: B2
Details: with k1h1_human KRT31, Q15323
Chain of k1h1_human KRT31, Q15323 (Q15323 whole entry): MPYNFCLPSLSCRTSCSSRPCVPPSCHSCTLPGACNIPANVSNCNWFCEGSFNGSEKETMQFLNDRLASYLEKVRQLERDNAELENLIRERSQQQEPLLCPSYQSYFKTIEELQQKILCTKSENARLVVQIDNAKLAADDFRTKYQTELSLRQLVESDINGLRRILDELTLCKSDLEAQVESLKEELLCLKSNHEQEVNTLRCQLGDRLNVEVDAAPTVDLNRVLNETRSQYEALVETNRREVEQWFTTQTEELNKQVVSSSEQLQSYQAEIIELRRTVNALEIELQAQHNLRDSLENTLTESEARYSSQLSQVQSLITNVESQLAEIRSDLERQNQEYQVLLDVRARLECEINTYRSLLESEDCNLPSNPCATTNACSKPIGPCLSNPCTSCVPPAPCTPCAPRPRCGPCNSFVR

| effect of a mutation on the interaction | Variant |
| --- | --- |
| with no effect | V523F |
| with no effect | T552S |

Variants of: B2
Details: with tfp11_human TFIP11, Q9UBB9
Chain of tfp11_human TFIP11, Q9UBB9 (Q9UBB9 whole entry): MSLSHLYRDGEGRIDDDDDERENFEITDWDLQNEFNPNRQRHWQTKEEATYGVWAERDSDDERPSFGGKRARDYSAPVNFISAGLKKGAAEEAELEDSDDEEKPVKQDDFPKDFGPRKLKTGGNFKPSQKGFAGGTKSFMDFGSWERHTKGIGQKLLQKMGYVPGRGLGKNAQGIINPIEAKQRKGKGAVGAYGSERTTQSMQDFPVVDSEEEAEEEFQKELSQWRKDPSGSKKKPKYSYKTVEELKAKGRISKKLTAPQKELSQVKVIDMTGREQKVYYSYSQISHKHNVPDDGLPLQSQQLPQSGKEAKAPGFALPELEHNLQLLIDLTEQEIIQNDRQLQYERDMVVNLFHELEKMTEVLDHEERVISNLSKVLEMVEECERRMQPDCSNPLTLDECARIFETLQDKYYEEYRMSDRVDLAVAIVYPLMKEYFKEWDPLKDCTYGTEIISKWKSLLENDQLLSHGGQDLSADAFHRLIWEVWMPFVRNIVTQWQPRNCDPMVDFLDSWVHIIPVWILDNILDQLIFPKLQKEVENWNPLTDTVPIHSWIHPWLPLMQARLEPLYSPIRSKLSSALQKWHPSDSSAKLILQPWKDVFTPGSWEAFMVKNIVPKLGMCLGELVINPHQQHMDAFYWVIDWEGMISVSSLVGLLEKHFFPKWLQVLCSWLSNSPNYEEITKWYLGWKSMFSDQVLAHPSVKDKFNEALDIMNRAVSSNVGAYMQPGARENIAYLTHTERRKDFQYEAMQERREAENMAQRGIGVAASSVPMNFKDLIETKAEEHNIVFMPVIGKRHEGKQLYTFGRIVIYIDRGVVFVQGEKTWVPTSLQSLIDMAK

| effect of a mutation on the interaction | Variant |
| --- | --- |
| with no effect | V523F |
| with no effect | T552S |

Variants of: B2
Details: with goga2_human GOLGA2, Q08379
Target sequence in this assay (Q08379 whole entry): as the sequence (Q08379 whole entry) above

| effect of a mutation on the interaction | Variant |
| --- | --- |
| with no effect | V523F |
| with no effect | T552S |

Variants of: B3
Details: with tri54_human TRIM54, Q9BYV2

| effect of a mutation on the interaction | Variant |
| --- | --- |
| with no effect | T552S |
| with no effect | F174V |
| with no effect | V523F |

Variants of: B3
Details: with tri54_human TRIM54, Q9BYV2
Remark: another data set of the same source

| effect of a mutation on the interaction | Variant |
| --- | --- |
| causing an interaction | F174V |
